From article PMC3857177 (PLoS ONE, 2013)
Residue numbers refer to the chain shown, from its start.

T1: His6-tagged human Rock1 707–913 (human, UniProt Q13464 707-913)
T1 construct: source: E. coli BL21(DE3) codon plus (RIPL), purified; not shown: His6, N-terminal, kept
T1 sequence (looked up): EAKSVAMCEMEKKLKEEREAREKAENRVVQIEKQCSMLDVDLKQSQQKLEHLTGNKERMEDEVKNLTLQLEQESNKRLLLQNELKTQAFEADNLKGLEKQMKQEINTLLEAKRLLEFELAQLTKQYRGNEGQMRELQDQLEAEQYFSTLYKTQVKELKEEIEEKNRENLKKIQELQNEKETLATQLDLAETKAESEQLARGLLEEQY

T2: human Rock1 707–946, 865EE866 to alanine (human, UniProt Q13464 707-946, 865EE866 alanine substitutions)
T2 construct: source: E. coli BL21(DE3) codon plus (RIPL), purified; not shown: His6, N-terminal, cleaved
T2 sequence (looked up): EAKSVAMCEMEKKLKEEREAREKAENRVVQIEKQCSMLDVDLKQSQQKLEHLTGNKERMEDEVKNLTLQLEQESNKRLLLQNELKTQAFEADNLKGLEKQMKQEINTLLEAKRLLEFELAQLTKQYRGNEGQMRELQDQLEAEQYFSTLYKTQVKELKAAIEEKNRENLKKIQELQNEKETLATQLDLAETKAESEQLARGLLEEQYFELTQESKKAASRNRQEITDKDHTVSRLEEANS

T3: human Rock1 707–946, SBD^SER variant (human, UniProt Q13464 707-946, triple alanine mutation, 884EKE886)
T3 construct: source: E. coli BL21(DE3) codon plus (RIPL), purified; not shown: His6, N-terminal, cleaved
T3 sequence (looked up): T2 sequence (looked up) with A159E, A160E, E178A, K179A, E180A

T4: human Rock1 707–946, wild type (human, UniProt Q13464 707-946)
T4 construct: also called wild-type Rock1 SBD; not shown: His6, N-terminal, cleaved
T4 sequence (looked up): T2 sequence (looked up) with A159E, A160E

T5: human Shrm2 SD2 domain (1427–1610), N-terminally labelled with Oregon Green 488 (human, UniProt Q13796 1427-1610, Oregon Green 488 (succinimidyl ester) on the N-terminus, labelling essentially 1:1)
T5 chain: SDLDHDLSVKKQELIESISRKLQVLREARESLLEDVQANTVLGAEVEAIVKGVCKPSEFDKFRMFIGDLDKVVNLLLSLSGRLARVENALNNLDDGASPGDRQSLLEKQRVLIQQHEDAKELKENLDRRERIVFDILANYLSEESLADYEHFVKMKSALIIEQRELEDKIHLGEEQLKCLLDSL

B1: human Shrm2 SD2 domain (1427–1610), untagged (domain or fragment, UniProt Q13796 1427-1610, looked up)
chain: T5 chain
notes: Shroom2 (Shrm2), human, Shrm Domain 2 (SD2), residues 1427-1610; Cloned into pET151/D-TOPO (His6 removable with TEV); called untagged in the pull-down; also called Shrm SD2; human Shroom2 SD2; source: E. coli BL21(DE3) Codon+(RILP), purified; not shown: His6, N-terminal, cleaved
B2: human Rock1 SBD (834–913), wild type (domain or fragment, UniProt Q13464 834-913, looked up)
chain: GNEGQMRELQDQLEAEQYFSTLYKTQVKELKEEIEEKNRENLKKIQELQNEKETLATQLDLAETKAESEQLARGLLEEQY
notes: PDB 4L2W holds the same limits with the SER mutation 884EKE886 to AAA; also called WT SBD; not shown: His6, N-terminal, cleaved
B3: His6-tagged human Rock1 834–913 (domain or fragment, UniProt Q13464 834-913, looked up)
chain: B2 chain
notes: PDB 4L2W holds the same limits with the SER mutation 884EKE886 to AAA; source: E. coli BL21(DE3) codon plus (RIPL), purified; not shown: His6, N-terminal, kept
B4: human Rock1 SBD (834–913) with the surface entropy reduction mutation (SBD^SER) (domain or fragment, UniProt Q13464 834-913, looked up)
chain: B2 chain with E51A, K52A, E53A
notes: A selenomethionine form was used for phasing only; also called Rock1 SBD^SER; SER mutant; not shown: His6, N-terminal, cleaved
B5: His6-tagged human Rock1 772–913 (domain or fragment, UniProt Q13464 772-913, looked up)
chain: LTLQLEQESNKRLLLQNELKTQAFEADNLKGLEKQMKQEINTLLEAKRLLEFELAQLTKQYRGNEGQMRELQDQLEAEQYFSTLYKTQVKELKEEIEEKNRENLKKIQELQNEKETLATQLDLAETKAESEQLARGLLEEQY
notes: source: E. coli BL21(DE3) codon plus (RIPL), purified; not shown: His6, N-terminal, kept
B6: human Rock1 707–946, wild type (domain or fragment)
chain: T2 sequence (looked up) with A159E, A160E
B7: human Shrm2 SD2 domain (1427–1610), N-terminally labelled with Oregon Green 488 (domain or fragment, UniProt Q13796 1427-1610, looked up)
chain: T5 chain
modifications: Oregon Green 488 (succinimidyl ester) on the N-terminus, labelling essentially 1:1
notes: Shroom2 (Shrm2), human, Shrm Domain 2 (SD2), residues 1427-1610; Same construct as m1, with the fluorophore; also called Shrm2 SD2-Oregon Green 488; Oregon-Green labeled human Shrm2 SD2 domain; source: E. coli BL21(DE3) Codon+(RILP), purified, then labelled
B8: human Rock1 707–946, 900ESE902 to alanine (domain or fragment, UniProt Q13464 707-946, looked up)
chain: T2 sequence (looked up) with A159E, A160E, E194A, S195A, E196A
notes: source: E. coli BL21(DE3) codon plus (RIPL), purified; not shown: His6, N-terminal, cleaved

How the values were obtained:
[1] = molecular target: T1, His6-tagged human Rock1 707–913; assay: pull-down; 25 µg purified His-tagged Rock1 fragment on nickel beads, 2x molar excess of untagged Shrm2 SD2, 10 min room temperature; 2% glycerol, 100 mM NaCl, 7 mM imidazole, 1 mM β-mercaptoethanol, 20 mM Tris pH 8.0; SDS-PAGE, Coomassie; settings: both partners purified
[2] = molecular target: T2, human Rock1 707–946, 865EE866 to alanine; assay: native gel or EMSA; 10 µM Rock1 707–946 (wild type or mutant) mixed with 10 µM human Shrm2 SD2, 20 min room temperature; 12% native PAGE at 4°C, Coomassie; settings: both partners purified
[3] = molecular target: T3, human Rock1 707–946, SBD^SER variant; assay: as above; settings: both partners purified
[4] = molecular target: B8; assay: as above; settings: both partners purified
[5] = molecular target: T4, human Rock1 707–946, wild type; assay: as above; settings: both partners purified
[6] = molecular target: the molecule itself; assay: cross-linking; 0.002% glutaraldehyde, 25 min, 26 µM protein; 25 mM HEPES pH 7.5, 8% glycerol, 500 mM NaCl, 5 mM β-ME; SDS-PAGE, Coomassie
[7] = molecular target: B7; assay: fluorescence polarisation; fluorescence anisotropy; 20 nM (legends: 50 nM) N-terminally Oregon Green 488-labelled Shrm2 SD2, increasing concentrations of Rock1 SBD; 20 mM Hepes pH 7.4, 100 mM NaCl, 5% glycerol; single binding model; settings: both partners purified
[8] = molecular target: T5, human Shrm2 SD2 domain (1427–1610), …; assay: FP
[9] = molecular target: B1; assay: pull-down; 25 µg purified His-tagged Rock1 fragment on nickel beads, 2x molar excess of untagged Shrm2 SD2, 10 min room temperature; 2% glycerol, 100 mM NaCl, 7 mM imidazole, 1 mM β-mercaptoethanol, 20 mM Tris pH 8.0; SDS-PAGE, Coomassie; settings: both partners purified
[10] = molecular target: T4, human Rock1 707–946, wild type; assay: fluorescence polarisation; fluorescence anisotropy; 20 nM (legends: 50 nM) N-terminally Oregon Green 488-labelled Shrm2 SD2, increasing concentrations of Rock1 SBD; 20 mM Hepes pH 7.4, 100 mM NaCl, 5% glycerol; single binding model; settings: both partners purified
[11] = molecular target: human Rock1 707–946, 900ESE902 to alanine (human, UniProt Q13464 707-946, 900ESE902 alanine substitutions); assay: FP

Binder: B1
- binding result [1]: binds
- binding result [2]: binds
- binding result [3]: binds
- binding result [4]: binds
- binding result [5]: binds

Binder: B2
- stoichiometry N [6]: 2
- binding result [7]: binds
- Kd [8]: 5.3 µM

Binder: B3
- binding result [9]: binds

Binder: B4
- stoichiometry N [6]: 2

Binder: B5
- binding result [9]: binds

Binder: B6
- Kd [8]: 1.7 µM

Binder: B7
- binding result [10]: binds
- Kd [11]: 9.3 µM

Binder: B8
- fold decrease in binding affinity against wild type [7]: ~5.5 fold
